Measured values: the DeepSol protein solubility set

Experiment: soluble on expression in E. coli; label from the status in PepcDB or PDB records

Sequence	soluble on expression in E. coli
MPDPLTVSGSFSPEDVKHIGLKSIISGQIIKKYSQNQNLRSIKNVKLIIPSKAVSVDRNERTLFIPCLKLLLNYRFSNNFNKVSQIEIDNVYAYVAVVFPDEEPESFGYYIGVDRNTMGHIAVVADPDSGKVWKLGKMRYHIHQKYQNIMNRLSNSGKNKQLKAVKKREKNIVKDLNHKISRKIVDLALYNGSGIKLENLKGIRKLNSKSNGAGKGKPDQNKDKKLTCSNEYSLNNWSFLQLQQFIEYKARLRGVEVVYIDPYATSKKCSRCGHTGNRQSKRFECPCCGHVDHADVNAAFNIALTPKDTGQFSAERDAGKGRTDTPQKVLARNAFSKRAAREKASPQFAWEVCQFLTLEHHHHHH	not soluble
MLRAKLLSWQEGVGSKTFEFDVDVEPRSYVISKVSQLSPIIASEDLTVCEGEVAVVGTRVIEIPENTVVRPVAAISHANGFVADVIECGAPGMVEDEKCINHAVFIPTRSGDVKEGDLLGMLRINFVRTGLLSRVIPSKPRVEERTVKASLTWVEGGVFYRENVTGTFSGYFESERCSLLPIVADERVRIEKGGVSAVEIERVDVKGGSIITPYGLAANAFAQLLDLVGGRTRKFEEDRVFDEAVLVGFSDGVVEKGEVLGLVCVMGESSGGGNSRQLQFSRKAGKGVVKTIHEYRSKPLRVGRKGEWRPAISDENRKLIRGVAEIIKIRPINVPDYAVVNPLGIMRQAYGTMVGGIANEPWSLESRKTIEEVVFLPIMDGEVRKGQLIGVFNVTRVAEGKLLEHHHHHH	soluble
MKYKAVLVDFGNTLVGFKPVFYEKVYQVLKDNGYDLDLRKVFRAYAKAMGMINYPDEDGLEHVDPKDFLYILGIYPSERLVKELKEADIRDGEAFLYDDTLEFLEGLKSNGYKLALVSNASPRVKTLLEKFDLKKYFDALALSYEIKAVKPNPKIFGFALAKVGYPAVHVGDIYELDYIGAKRSYVDPILLDRYDFYPDVRDRVKNLREALQKIEEMNKE	soluble
MGSDKIHHHHHHMDIKQLKYFVEIVKSGFNLSIASKTLHISQPALSQIIKNFEESEDVYLFERYKGRLNGLTPAGERFYVNAEHIINEYKNMMEDLREDSVQFKGKVRIGIPPLILGIAFSDVVAQLVANNPDIEFDIVEKGAYDLNRMLILQELDYAVLLHPHKIDKSVVTEHVLQEDELTAFLNINHPLAKKDKIDWNDLNEQLLAIFNPTFMIHHKLMQKFTDENVKLKRYIMSGSWDFLLLSTTNSDFITILPSPVHDFFENSKIIEKPFNHPITWKVILCRPKKERYSHVDQHVFKFIIDFFSKKNS	not soluble
MSLKIIDGNIASPLGFSADGLHAGFKKRKKDFGWIVSEVPASVAGVYTTNKVIAAPLIVTRESVKKAQKMQALVVNSGVANSCTGLQGMEDAYTMQKWTATKLKIAPELVGVASTGVIGDLMPMDTLQKGLSKLVVNGNSDDFAQAILTTDTKVKTVAVTEQFGRDEVTMAGVAKGSGMIHPNMATMLAFITCDAVISSETLQLALSQNVETTFNQITVDGDTSTNDMVLVLSNGCTLNKEILPDTPEFDKFSAMLHFVMQELAKKIAKDGEGATKLIEVEVINAPNSLDACMMAKSVVGSSLVKTAIFGEDPNWGRILAAVGYAGVDVPVDNIDIYLADIPVMLASSPVDFDEEDMQDVMRADTIKIIVDLHAGDSVGKAWGCDLSYDYVKINALYRTEGHHHHHH	soluble
MRKTLIALMFAAALPTVAMAMPDGGPRHDGPHHRGDAPFHQLDLSRDQRQQIGKLMGEQMQQRRDITERYLSKLPATDQKAMKDELQANRDKTDSAVRKLLTADQQKKFDELQKERAAKKAEWQEFQAWKAEKGAKAQLEHHHHHH	soluble
MGSDKIHHHHHHMIPDKSVEILLGELSRDIAQRTPGTGDFPTAVEGLELFRRNEPAPPVSCLVPPSIVLVADGAKIMWVGGEPYEYNAEKFLITSLDLPASSEILQASTSQPCVGVAYKLDQRVLMELIAQGSLPPVKKRDAGTSVGIGTITDALLEPFCRLLSLLDEPEAIPVLGPLIQREIHYRLLMSDQSDHLRQIAAVDGHGYRIGKAIDWLKTNIASPLRVEELASRVQMSTPSFHHHFRQLAGMSPLRYQKWLRLNEARRLMLNEHYDVTTAAYAVGYESLSHFSREYTRMFGESPKRDITELRKSAGKL	not soluble
MNIYAFDFDEIESQEDFYRDFSQTFGLAKDKVRDLDSLWDVLMNDVLPLPLEIEFVHLGEKTRRRFGALILLFDEAEEELEGHLRFNVRH	not soluble
MSLTERFVLRNVKRVNGEEVDIVIENNKIAQVTKAGAGEGGKVLDYSGTYVSSGWIDLHVHAFPEFDPYGDEVDEIGVKQGVTTIVDAGSCGADRIADLVKSREQAKTNLFAFLNISRIGLKRIDELSNMEWIDKEKVIEAVEKYKDVIVGLKARMSKSVVCDSGIEPLHIARDLSRETSLPIMVHIGSAPPRIEEVVPLLEKDDVITHYLNGKENNLFDEEGKPLPVLLDAVNRGVHLDVGHGNASFSFKVAEAAKRHGIAFNTISTDIYRKNRMHGPVYSMAHVLSKFLYLGYSLEEVIDAVTKHAAEWLKKPELGRIQEGDIANLTLFTVKDEKITLIDSEGDQRIAERRIDTKGVVINGSFIECEGHHHHHH	soluble
SLDDMTEFKNMPKVELHAHLSGSLSPETIKLIMESDETRAEEIMKKYKLEKPENMTGVFDCFPVIHAILRKPEAIRIAIRQTIKEFEEDNCVYLELRTSPKETDFMTYEDYLQVCIESFEAAKHEFPRIKTFLIVSLDRRMPFETAAHILGLIGEAQQRTNVIVGVELSGDPHLDGRRLLKLFVAARRFHGLGITIHLAEVLQNMADVEDYLNLRPDRIGHGTFLHTDPYTEYLTNKYKIPLEICLSSNVYSKTTTNYRNSHFNYWRKRGVPVFICTDDKGVIPGATLTEEYYKAAITFDLSTEELIGINQDALLNSFAYKYNVTDLTETFRKINNNVLD	soluble
MPGKLTATILTRNEAANIGDCIDSLAQLADEVIVLDSGSTDATRDIARARGANVIEDDGPWPGFGPQKNRALDRATGEWVLSIDADERVPPELAQEIRTAMARADADAYAIPRLSQFCGAWVHHSGWRPDHVIRLFRRGKARFSENLVHESLQVTGNVARLRTSLLHYSYTSMDQVHRKSAQYAEAGARDLTQRGKHIGALSPVLHGTWAFVRTLVLRRGFLDGGTGLAIARMNATVSYRKYRRARELASGANHRPLEHHHHHH	not soluble
MINKTQARRHKRKYKYRSKGNHSRSLLGMHTSPANSSMSQAIYSNDSLTTTDGVLGDESLSSETSIVSFTGENANKQKRQRLSESTENSIPEPAFLRSNVTSLTTSESDDIQQFFLENESLFQIEYKIDYKNYRDYTIVPSFGTVIPKSKCEIALICRPTGKSESDQMTISYKTVDSDNDLANGCFSEMEKIVIDIKGRSQESPIHSIPSSSGSSSTSSPSAKRRNIVDSDSD	not soluble
MGSDKIHHHHHHMILFGTGGIRGVMRKGEFDEETVKRASLSTALWLKEKGQKSVVIAYDTRKNSKEFAELAGRVFAGEGIEAYVFPEPTPTPVLSFAVRYMKTGGGVVITASHNPPEYNGYKVYTWDGVQAIPEYTNEITEIYKKVDLSHVKEGEIKFVPPEVKESYIKAVLEIVSNLPMKTDLDIAYSPLHGTGANYVPEVLKRLGFKVRLVEEQMKPDPNFSTVPTPNPEEDEALVLLNKKGATLGLATDPDCDRVGVVFKGRRLTGNQVGVLLTDFLLDHVKVENPLVIKTIVTTDMVRPICEEKGAFLEETPTGFKFIGHLIEEHTKKGDRNFVFGFEESCGYLAGNHARDKDGVVGSVLSAVAFSNYDPYEKLEELYQKYGYYMEKLINFKFEDVDRAVEIYRSLKNYDGIIDYSKGYGNVIPNETIAFVFEKSRIFVRPSGTEPKLKVYIHVRGDTREEAEELMKESESKIKEILKL	not soluble
MIRVMATGVFDILHLGHIHYLKESKKLGDELVVVVARDSTARNNGKIPIFDENSRLALISELKVVDRAILGHEGDMMKTVIEVKPDIITLGYDQKFDEAELQSKINKLGITVKIVRISKYDGQLNSSSSVRKKIMELIGERY	not soluble
MSQEKTGLQRPVLAQLSPIAIRGHSDEGVKKLRRRNDDGCFGEALFKGNAPARSLLFGDDACHRRVENLYLLDNNPTNWSGIKTNLKREIPLLQDPTETFARMNKVMHQTLKYVKEVESINFSSRGVIDFNGEVMEDHQRIFLSVCTSVFANFSFSCQMDVEKLLSFLMALFENYSKENAYHNALHAADSVQMLFLILREKPATLIFTENEVILAFLATLSLGFVHPGVSNAFLARIDHPLVLVYGDMTTQQSAGLTALLYLLNREENRFIDLFANSGTQPFSQFLREILVETVLGTAPRLRSSLLRDLEKVAVADAVELNDIPILLAAVVILADNALALRPHAQFVNLAGLMVTEWLREAYEEEQRGMDPLVPNLRKQIYENGLGMAVDYCKVWLRPLITNIRALVPQDLYDNMEGNTEAPSMSEIQDFLVHLDSSNERWNDGSVPVIDIIRRITMHATSLDRKASKRAILNAASNRAVSGFLSRSSSMCLSPNGARMSAEVSEKKINQQPSRCEHYFSFLRLYDTYEKEGRPAAEFAAQLVFLALQLNPEYIGRYTHKGIDVCSKEECEEIAELIMKKEEAPTTAEVIASPLRDGEQTDGFILRLMEMYAERDRERERNDTLNSATNPTSNLRRTLKCYNPVYGGMYSGKKS	soluble
MGSDKIHHHHHHMVLSKFMPHNPKFAAKFAEAAQNAHATAQALVDLLENYTDVERKVQRVLDFEHEGDRITSEVTNLLAESFIVPFDREDILALNAELDDLVDDMEEAASKLSLYRIERPLPQMAQLARVVEQQCALLAQGMPLIEDGRMVDELRQLSQKIRALEDEGDRISDEVARHLYDGVTEVPQMIVAMRSGEILNLIENASDQAQRIARTVESILLKNA	not soluble
MGSDKIHHHHHHMQIKALIYFDELVRTRSMRAAAERLNVQPTAFARQIDQLEHYFGTVLIERSSRGIQLTAAGELLAARAGKTLRELNHVHQLIDDLQGLKRGHVTIHANGATVANLLAPALADFSLVYPNIRFSVTISSAGQAMEALSSAKADMAVTLFSEPDPGIRVRARAQIVYDVIAASHHPAAHLAEMTVTELARFPLAVPDGSFGARRAFDAWFSKAGLELDPVFVTGSLEMQRELVLRGAALTLLPAQTVARERRSGELVVIPVAGGAGIRTPIDLCVAGDRQLSFAASKLVDAVERFMREQMGK	not soluble
MQKDYQKLIVYLCDFLEKEVQKRGFKKVVYGLSGGLDSAVVGVLCQKVFKENAHALLMPSSVSMPENKTDALNLCEKFSIPYTEYSIAPYDAIFSSHFKDASLTRKGNFCARLRMAFLYDYSLKSDSLVIGTSNKSERMLGYGTLFGDLACAINPIGELFKTEVYELARRLNIPKKILNKPPSADLFVGQSDEKDLGYPYSVIDPLLKDIEALFQTKPIDTETLAQLGYDEILVKNITSRIQKNAFKLELPAIAKRFNPELEHHHHHH	soluble
MEECAVSGGFDVSPQELRTFAGKLDVHRSTAEEIAGLVTEADVPERSWGVVGLVVKSECTRMLGDLNELFTALQEGLRSGSEKFTGAAQDYTDQEEAVKELLSGLQVRLDERQGGR	not soluble
MASMTGGQQMGRGSMAGVLPAHGTQHGIRLPLRSGLGGAPLGLRLPRETDEEPEEPGKKGSFVEMVDNLRGKSGQGYYVEMTVGSPPQTLNILVDTGSSNFAVGAAPHPFLHRYYQRQLSSTYRDLRKGVYVPYTQGKWEGELGTDLVSIPHGPNVTVRANIAAITESDKFFINGSNWEGILGLAYAEIARPDDSLEPFFDSLVKQTHVPNLFSLQLCGAGFPLNQSEVLASVGGSMIIGGIDHSLYTGSLWYTPIRREWYYEVIIVRVEINGQDLKMDCKEYNYDKSIVDSGTTNLRLPKKVFEAAVKSIKAASSTEKFPDGFWLGEQLVCWQAGTTPWNIFPVISLYLMGEVTNQSFRITILPQQYLRPVEDVATSQDDCYKFAISQSSTGTVMGAVIMEGFYVVFDRARKRIGFAVSACHVHDEFRTAAVEGPFVTLDMEDCGYNIPQTDES	soluble
